First the molecules themselves.
B1: Peroxisomal biogenesis factor 3 (Saccharomyces cerevisiae), P28795 (parent)
chain: MAPNQRSRSLLQRHRGKVLISLTGIAALFTTGSVVVFFVKRWLYKQQLRITEQHFIKEQIKRRFEQTQEDSLYTIYELLPVWRMVLNENDLNLDSIVTQLKDQKNQLTRAKSSESRESSPLKSKAELWNELELKSLIKLVTVTYTVSSLILLTRLQLNILTRNEYLDSAIKLTMQQENCNKLQNRFYNWVTSWWSDPEDKADDAMVMAAKKSKKEGQEVYINEQAFLSLSWWILNKGWLSYNEIITNQIEIEFDGIHPRDTLTLEEFSSRLTNIFRNTNSQIFQQNNNNLTSILLPKDSSGQEFLLSQTLDADALTSFHSNTLVFNQLVNELTQCIESTATSIVLESLINESFHFIMNKVGIKTIAKKKPGQEDQQQYQMAVFAMSMKDCCQEMLQTTAGSSHSGSVNEYLATLDSVQPLDDLSASVYSNFGVSSSFSFKP
partner: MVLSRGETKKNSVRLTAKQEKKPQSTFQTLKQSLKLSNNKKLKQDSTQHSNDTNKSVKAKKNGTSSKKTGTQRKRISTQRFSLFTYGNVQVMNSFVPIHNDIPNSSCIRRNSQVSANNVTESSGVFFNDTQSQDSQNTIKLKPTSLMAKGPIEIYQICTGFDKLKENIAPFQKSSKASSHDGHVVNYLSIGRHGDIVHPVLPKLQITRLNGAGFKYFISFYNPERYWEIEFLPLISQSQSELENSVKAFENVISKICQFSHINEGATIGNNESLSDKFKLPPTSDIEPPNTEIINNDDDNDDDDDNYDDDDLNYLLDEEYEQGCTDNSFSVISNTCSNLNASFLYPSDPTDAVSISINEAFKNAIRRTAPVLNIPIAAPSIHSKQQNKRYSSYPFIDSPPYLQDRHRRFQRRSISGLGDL

Variants of B1 are the subject of one experiment. As to conditions: with inp1_yeast INP1, Q03694.
For N188I, the “effect of a mutation on the interaction” value was “decreasing interaction”.

The variants in another experiment derive from B1. As to conditions: with inp1_yeast INP1, Q03694. The source holds these as a separate data set.
With V81E, the “effect of a mutation on the interaction” value is recorded as “disrupting interaction”.

These data come from IntAct's records for PubMed 23900285.
